Experimental data as given in patent US20100272817A1.
Square brackets hold non-standard residues; d marks the D form. Ends that are not written are not given here.

Molecular target: cholesterol ester hydrolase (CEH)

**Q.** For [dR][dF][dH][dN][dP][dD][dK]G[dS][dR]G[dW][dE][dN][dA][dA][dQ][dD][dA] (also: retro-inverso peptide) [retro-inversal D amino acid peptide … (D-form; SEQ ID NO:3)], which in vivo macrophage cholesterol export ([3H]-cholesterol in plasma 5 hours after peptide injection) is on record?
**A.** The in vivo macrophage cholesterol export ([3H]-cholesterol in plasma 5 hours after peptide injection) was 2.5 fold.
